Experimental data published in US20110059076A1, “HUMAN SERUM ALBUMIN LINKERS AND CONJUGATES THEREOF” (priority 2008, published 2011).
Entries after “also recorded” stand apart in the source; their conditions may differ.

What was measured:
[1] = system: p27^kip1 in BT474-M3 breast tumor cells; assay: p27kip1 sub-cellular location by immunofluorescence; format: cell-based; details: 1 μM, 6 hours
Protocol: The sub-cellular location of p27^kip1 is assessed using immunofluorescence techniques.

[2] = system: SKOV-3 (human ovarian adenocarcinoma) xenograft; assay: SKOV-3 xenograft model; format: in vivo, mice; details: SKOV-3, 30 mg/kg every 3 days
Description: Calu-3 (human lung adenocarcinoma; FIG. 17A), SKOV-3 (human ovarian adenocarcinoma; FIG. 17B), NCI-N87 (human gastric carcinoma; FIG. 17C), ACHN (human kidney adenocarcinoma; FIG. 17D), and MDA-MB-361 (human breast adenocarcinoma; FIG. 17E) xenograft model are shown.

[3] = system: AKT phosphorylation in BT-474-M3 cells; assay: HRG-induced AKT phosphorylation ELISA in BT-474-M3; format: cell-based, human; details: BT-474-M3, dose titration 24 hours, 5 nM HRG 1β EGF domain 10 minutes
[4] = system: MALME-3M melanoma cells (ErbB2 and ErbB3 receptors); assay: cell binding by flow cytometry, apparent binding affinity; details: MALME-3M cells
Protocol: Cell binding is assessed by flow cytometry and apparent binding affinities are determined for each molecule. Control cells are incubated with secondary antibody alone.

BT474 breast tumor cells = assay: cell cycle analysis by propidium iodide flow cytometry; format: cell-based; details: 72 hours treatment
Protocol: After the end of treatment, cells are trypsinized, gently resuspended in hypotonic solution containing propidium iodide and single cells are analyzed by flow cytometry. Cell cycle distribution in G1 and S phases is measured using curve-fitting algorithms designed for cell cycle analysis (FlowJo software cell cycle platform).
After the end of treatment, cells are trypsinized, gently resuspended in hypotonic solution containing propidium iodide and single cells are analyzed by flow cytometry. Cell cycle distribution in G1 and S phases is measured using curve-fitting algorithms designed for cell cycle analysis (FlowJo software cell cycle platform, Tree Star, Inc.). […] In a second experiment, the number of cell colonies formed following treatment with B2B3-1 is studied. […] Media only or media including treatment is replenished every 3 days. After 14 days the number of colonies is counted and compared to untreated cells.

[5] = pharmacokinetics in Cynomolgus monkeys (dose range-finding toxicology study); format: in vivo, Cynomolgus monkey
Protocol: Blood samples for pharmacokinetic analysis are also obtained from a dose range-finding toxicology study in female Cynomolgus monkeys. […] Sampling occurred prior to and 5 minutes after dosing on each dosing day (study days 1, 4, 7 and 10) to provide pre-dose and peak/trough concentrations, and at 1, 2, 4, 8, 24 and 48 hours after the end of the first infusion on day 1 and at 1, 2, 4, 8, 24, 48, 72 and 120 hours after the last infusion on day 10. For recovery animals dosed at 200 mg/kg serum samples are also collected at 168, 336 and 456 hours after the last infusion.
Cynomolgus monkey serum samples are assayed using the ErbB2/ErbB3 ELISA method described previously.

[6] = system: BT-474-M3 xenograft tumors; assay: q7d versus q3d dosing in BT-474-M3 xenografts; format: in vivo, athymic nude mice (nu/nu); details: intraperitoneal
Protocol: Mice receive a subcutaneous estrogen-releasing implant in the opposite flank (0.72 mg pellet, 60 day, slow-release, Innovative Research of America, Sarasota, Fla.) 24 h prior to the injection of 20×10^6 human BT-474-M3cells in PBS. […] Tumors are measured twice a week using digital calipers. Tumor volume is calculated using the formula: π/6×(W^2×L), where W is the short diameter and L is the long diameter. […] PBS vehicle is used as a negative control.

[7] = system: pErbB3 and pAKT in BT-474-M3 cells; assay: Western blot of heregulin induced ErbB3 activity in BT-474-M3 cells; format: cell-based; details: BT-474-M3, 24 hours, 10 nM or 100 nM, with or without 5 nM HRG 1β EGF
Description: Lysates are subjected to immunoblot analysis for ErbB3, pErbB3, AKT, and pAKT.

[8] = system: human BT-474-M3 xenografts; assay: dose response in BT-474-M3 breast cancer xenograft model; format: in vivo, nude mice; details: 0.3, 1, 3, 10, 30 or 90 mg/kg i.p. every 3 days, 12 doses
Protocol: All doses are administered interperitoneally (i.p.). Tumor size is measured twice a week and the corresponding tumor volume is calculated.

ErbB3 = ErbB3 (Homo sapiens, UniProt P04626+P21860); assay: inhibition of ligand-induced phosphorylation of ErbB3 (general statement); format: cell-based
[9] = Cynomolgus monkey (1st dose), 4 mg/kg
[10] = Cynomolgus monkey (1st dose), 20 mg/kg
[11] = Cynomolgus monkey (1st dose), 200 mg/kg
[12] = Cynomolgus monkey (4th dose), 4 mg/kg
[13] = Cynomolgus monkey (4th dose), 20 mg/kg
[14] = Cynomolgus monkey (4th dose), 200 mg/kg
[15] = Cynomolgus monkey (4th dose), 200 mg/kg, recovery animals

In the case of “B2B3-1: bispecific scFv antibody fusion: anti-ErbB3 scFv H3 and anti-ErbB2 scFv B1D2 joined by a modified human serum albumin (HSA) linker”, the “sub-cellular location of p27^kip1” value [1] is reported as “translocated to the nucleus; also recorded: translocation of cell cycle inhibitor p27^kip1 to the nucleus”, the tumor size reduction [2] is reported as “efficacious” and the “inhibition of HRG induced AKT phosphorylation” value [3] is reported as “inhibits”. The “apparent binding affinity KD” value [4] was “significant increase in apparent binding affinity”, the “population of cells in G1 phase” value (BT474 breast tumor cells) was “increase; also recorded: G1 arrest” and the “population of cells in S phase” value (BT474 breast tumor cells) was “modestly decrease”. It also gave an AUC [5, 9] of 3.44E+03 hr-μg/ml, a Clearance [5, 9] of 28.1 mL/day/kg and a T½β [5, 9] of 39.1 h. For the same substance, the AUC [5, 10] was 2.29E+04 hr-μg/ml, the Clearance [5, 10] was 21.1 mL/day/kg and the T½β [5, 10] was 33.1 h. The AUC [5, 11] was 3.18E+05 hr-μg/ml, the Clearance [5, 11] was 15.4 mL/day/kg and the T½β [5, 11] was 68.8 h. For the same substance, the AUC [5, 12] was 7.20E+03 hr-μg/ml, the Clearance [5, 12] was 14.4 mL/day/kg and the T½β [5, 12] was 44.9 h. The AUC [5, 13] was 8.20E+04 hr-μg/ml, the Clearance [5, 13] was 6 mL/day/kg and the T½β [5, 13] was 122.5 h. The AUC [5, 14] was 5.72E+05 hr-μg/ml, the Clearance [5, 14] was 8.4 mL/day/kg and the T½β [5, 14] was 69.7 h. The AUC [5, 15] was 5.99E+05 hr-μg/ml, the Clearance [5, 15] was 8.16 mL/day/kg and the T½β [5, 15] was 66.6 h. For the same substance, the Mean half-life estimates ([5]; Cynomolgus monkey, day 1, 4, 20 or 200 mg/kg) was 38.3 to 67.2 h, the “efficacy of q7d dosing (66, 132, 198 mg/kg) versus 30 mg/kg q3d” value [6] was “equivalent efficacy” and the “inhibition of pAKT” value [7] was “in a ligand dependent manner”. For the same substance, the “inhibition of pErbB3” value [7] was “in a ligand dependent manner”, the complete regressions [8] was “Complete regressions were observed in each of the B2B3-1 treatment groups except mice treated with the lowest dose” and the “tumor size compared to the control group” value [8] was “significant reduction”. The “potency of inhibition of ligand-induced phosphorylation of ErbB3” value (ErbB3) was “sub-nanomolar”.
